{
  "source": "the RNAGym collection of RNA variant scans (doi:10.1093/nar/gkz1192)",
  "parents": {"B1": {"name": "CPEB3 Ribozyme (parent)", "chain": "UAACAGGGGGCCACAGCAGAAGCGUUCACGUCGCAGCCCCUGUCAGAUUCUGGUGAAUCUGCGAAUUCUGCUGUAUAUCUC"}},
  "data": [
    {"variants_of": "B1", "assay": "self-cleavage, relative activity (ratio to wild type); higher = more cleavage; in vitro, sequencing", "how_it_was_run": "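Libraries of CPEB3 self-cleaving ribozyme mutants came from rounds of error-prone PCR and carried barcodes, which DNA sequencing matched to variants. In vitro transcription used T7 RNA polymerase at 37°C for 5 hours, with a further 15 min in DNase I before EDTA stopped the reaction; the ribozymes cleaved during both steps. The RNA was reverse transcribed with template switching and sequenced on Illumina. Relative activity is the cleaved/total read fraction of a variant divided by that of the unmutated ribozyme, averaged over three batches with at least 5 reads.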", "values": [
      {"variant": "UAACAGGGGGCCACAGCGGAAGCGUUCACGUCGCAGCCCCUGUCAGAUUCUGGUGAAUCUGCGAAUUCUGCUGUAUCUCUC", "self-cleavage": 0.39},
      {"variant": "UAACAGGGGGCCACAGCGGAAGCGUUCACGUCGCAGCCCCUGUCAGAUUCUGGUGAAUCUGCGAAUUCUGCUGUAUGUCUC", "self-cleavage": 0.78},
      {"variant": "UAACAGGGGGCCACAGCGGAAGCGUUCACGUCGCAGCCCCUGUCAGAUUCUGGUGAAUCUGCGAAUUCUGCUGUAUAUGUC", "self-cleavage": 0.73},
      {"variant": "UAACAGGGGGCCACAGCGGAAGCGUUCACGUCGCAGCCCCUGUCAGAUUCUGGUGAAUCUGCGAAUUCUGCUGUAUAUUUC", "self-cleavage": 0.9},
      {"variant": "UAACAGGGGGCCACAGCGGAAGCGUUCACGUCGCAGCCCCUGUCAGAUUCUGGUGAAUGUGCGAAUUCUGCUGUAUAUCUC", "self-cleavage": 0.25},
      {"variant": "UAACAGGGGGCCACAGCGGAAGCGUUCACGUCGCAGCCCCUGUCAGAUUCUGGUGAAUAUGCGAAUUCUGCUGUAUAUCUC", "self-cleavage": 0.23},
      {"variant": "UAACAGGGGGCCACAGCGGAAGCGUUCACGUCGCAGCCCCUGUCAGAUUCUGGUGAAUUUGCGAAUUCUGCUGUAUAUCUC", "self-cleavage": 0.43},
      {"variant": "UAACAGGGGGCCACAGCGGAAGCGUUCACGUCGCAGCCCCUGUCAGAUUCUGGUAAAUCUGCGAAUUCUGCUGUAUAUCUC", "self-cleavage": 0.47},
      {"variant": "UAACAGGGGGCCACAGCGGAAGCGUUCACGUCGCAGCCCCUGUCAGAUUCUGGUUAAUCUGCGAAUUCUGCUGUAUAUCUC", "self-cleavage": 0.7},
      {"variant": "UAACAGGGGGCCACAGCGGAACCGUUCACGUCGCAGCCCCUGUCAGAUUCUGGUGAAUCUGCGAAUUCUGCUGUAUAUCUC", "self-cleavage": 0.24},
      {"variant": "UAACAGGGGGCCACAGCGGAAUCGUUCACGUCGCAGCCCCUGUCAGAUUCUGGUGAAUCUGCGAAUUCUGCUGUAUAUCUC", "self-cleavage": 0.22},
      {"variant": "UAACAGGGGGCCACAGCGGAAACGUUCACGUCGCAGCCCCUGUCAGAUUCUGGUGAAUCUGCGAAUUCUGCUGUAUAUCUC", "self-cleavage": 0.24},
      {"variant": "UAACAGGGGGCCACAGCGGAAGCGUUCACGUCACAGCCCCUGUCAGAUUCUGGUGAAUCUGCGAAUUCUGCUGUAUAUCUC", "self-cleavage": 0.23},
      {"variant": "UAACAGGGGGCCACAGCGGAAGCGUUCACGUCUCAGCCCCUGUCAGAUUCUGGUGAAUCUGCGAAUUCUGCUGUAUAUCUC", "self-cleavage": 0.19},
      {"variant": "UAACAGGGGGCCACAGCGGAAGCGUUCACGUCGCAGCCCCUGUCAGAUUCUGGUGAAUCUGCGAAUUCUGCUGUCUAUCUC", "self-cleavage": 0.91},
      {"variant": "UAACAGGGGGCCACAGCGGAAGCGUUCACGUCGCAGCCCCUGUCAGAUUCUGGUGAAUCUGCGAAUUCUGCUGUUUAUCUC", "self-cleavage": 0.82},
      {"variant": "UAACAGGGGGCCACAGCGGAAGCGUUCACGUCGCAGCCCCUGUCAGAUUCUGGUGAAUCUGCGAAUUCUGCUGUGUAUCUC", "self-cleavage": 0.57},
      {"variant": "UAACAGGGGGCCACAGCGGAAGCGUUCACGUCGCAGCCCCUGUCAGAUUCUGAUGAAUCUGCGAAUUCUGCUGUAUAUCUC", "self-cleavage": 0.9},
      {"variant": "UAACAGGGGGCCACAGCGGAAGCGUUCACGUCGCAGCCCCUGUCAGAUUCUGUUGAAUCUGCGAAUUCUGCUGUAUAUCUC", "self-cleavage": 0.56},
      {"variant": "UAACAGGGGGCCACAGCGGAAGCGUUCACGUCGCAGCCCCUGUCAGAUUCUGGUGAAUCUGCGAAUUCUGAUGUAUAUCUC", "self-cleavage": 0.29},
      {"variant": "UAACAGGGGGCCACAGCGGAAGCGUUCACGUCGCAGCCCCUGUCAGAUUCUGGUGAAUCUGCGAAUUCUGGUGUAUAUCUC", "self-cleavage": 0.27},
      {"variant": "UAACAGGGGGCCACAGCGGAAGCGUUCACGUCGCAGCCCCUGUCAGAUUCUGGUGAAUCUGCGAAUUCUGUUGUAUAUCUC", "self-cleavage": 0.28},
      {"variant": "UAACAGGGGGCCACAGCGUAAGCGUUCACGUCGCAGCCCCUGUCAGAUUCUGGUGAAUCUGCGAAUUCUGCUGUAUAUCUC", "self-cleavage": 0.32},
      {"variant": "UAACAGGGGGCCACAGCGCAAGCGUUCACGUCGCAGCCCCUGUCAGAUUCUGGUGAAUCUGCGAAUUCUGCUGUAUAUCUC", "self-cleavage": 0.2},
      {"variant": "UAACAGGGGGCCACAGCGGAAGUGUUCACGUCGCAGCCCCUGUCAGAUUCUGGUGAAUCUGCGAAUUCUGCUGUAUAUCUC", "self-cleavage": 0.12},
      {"variant": "UAACAGGGGGCCACAGCGGAAGGGUUCACGUCGCAGCCCCUGUCAGAUUCUGGUGAAUCUGCGAAUUCUGCUGUAUAUCUC", "self-cleavage": 0.61},
      {"variant": "UAACAGGGGGCCACAGCGGAAGAGUUCACGUCGCAGCCCCUGUCAGAUUCUGGUGAAUCUGCGAAUUCUGCUGUAUAUCUC", "self-cleavage": 0.26},
      {"variant": "UAACAGGGGGCCACAGCGGAAGCGUUCACGUCGCAGCCCCUGUCAGAUUCUCGUGAAUCUGCGAAUUCUGCUGUAUAUCUC", "self-cleavage": 0.94},
      {"variant": "UAACAGGGGGCCACAGCGGAAGCGUUCACGUCGCAGCCCCUGUCAGAUUCUUGUGAAUCUGCGAAUUCUGCUGUAUAUCUC", "self-cleavage": 0.83},
      {"variant": "UAACAGGGGGCCACAGCGGAAGCGUUCACGUCGCAGCCCCUGUCAGAUUCUAGUGAAUCUGCGAAUUCUGCUGUAUAUCUC", "self-cleavage": 0.82},
      {"variant": "UAACAGGGGGCCACAGCGGAAGCGUUCACGUCGCAGCCCCUGUCAGAUUCUGGUGAAUCUGCGAAUUCUGCUGUAUAUCUA", "self-cleavage": 0.55},
      {"variant": "UAACAGGGGGCCACAGCGGAAGCGUUCACGUCGCAGCCCCUGUCAGAUUCUGGUGAAUCUGGGAAUUCUGCUGUAUAUCUC", "self-cleavage": 0.13},
      {"variant": "UAACAGGGGGCCACAGCGGAAGCGUUCACGUCGCAGCCCCUGUCAGAUUCUGGUGAAUCUGUGAAUUCUGCUGUAUAUCUC", "self-cleavage": 0.32},
      {"variant": "UAACAGGGGGCCACAGCGGAAGCGUUCACGUCGCAGCCCCUGUCAGAUUCUGGUGAAUCUGAGAAUUCUGCUGUAUAUCUC", "self-cleavage": 0.23}
    ]}
  ]
}
